What was measured:
[1] = molecular target: T1, acetyl-CoA synthetase (Acs1Mt) (Methanothermobacter thermautotrophicus, UniProt O26319); assay: inhibition of purified enzyme, hydroxamate assay; type: biochemical
T1 construct: gene MTH_217
T1 sequence (O26319 1-558): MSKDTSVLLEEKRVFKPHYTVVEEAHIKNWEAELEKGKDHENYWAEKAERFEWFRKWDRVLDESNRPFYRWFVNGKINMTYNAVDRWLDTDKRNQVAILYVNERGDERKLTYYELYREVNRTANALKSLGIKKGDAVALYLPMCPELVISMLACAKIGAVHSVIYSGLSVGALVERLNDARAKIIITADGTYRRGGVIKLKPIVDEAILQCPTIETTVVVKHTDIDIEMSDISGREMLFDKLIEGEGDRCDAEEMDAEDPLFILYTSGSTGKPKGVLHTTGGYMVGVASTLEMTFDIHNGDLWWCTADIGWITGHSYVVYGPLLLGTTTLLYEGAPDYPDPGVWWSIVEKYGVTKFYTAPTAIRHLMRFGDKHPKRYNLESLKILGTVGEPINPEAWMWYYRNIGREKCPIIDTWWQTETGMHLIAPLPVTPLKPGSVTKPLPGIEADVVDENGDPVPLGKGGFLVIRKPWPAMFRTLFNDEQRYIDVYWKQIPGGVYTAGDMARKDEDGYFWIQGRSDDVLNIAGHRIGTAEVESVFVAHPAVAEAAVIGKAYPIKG

Acs1Mt = molecular target: T2, Acs1Mt (Methanothermobacter thermautotrophicus, UniProt Q2XNL6); assay: hydroxamate assay, reciprocal plot of velocity vs inhibitor; type: biochemical; conditions: all three substrates (acetate, MgATP, CoA) saturating; pH 7.5; 65 °C
T2 construct: gene acs1; recombinant in E. coli Rosetta Blue (DE3); Q-sepharose and phenyl sepharose purification; dimer; motif III 498-YTAGD-502
T2 sequence (Q2XNL6 1-634): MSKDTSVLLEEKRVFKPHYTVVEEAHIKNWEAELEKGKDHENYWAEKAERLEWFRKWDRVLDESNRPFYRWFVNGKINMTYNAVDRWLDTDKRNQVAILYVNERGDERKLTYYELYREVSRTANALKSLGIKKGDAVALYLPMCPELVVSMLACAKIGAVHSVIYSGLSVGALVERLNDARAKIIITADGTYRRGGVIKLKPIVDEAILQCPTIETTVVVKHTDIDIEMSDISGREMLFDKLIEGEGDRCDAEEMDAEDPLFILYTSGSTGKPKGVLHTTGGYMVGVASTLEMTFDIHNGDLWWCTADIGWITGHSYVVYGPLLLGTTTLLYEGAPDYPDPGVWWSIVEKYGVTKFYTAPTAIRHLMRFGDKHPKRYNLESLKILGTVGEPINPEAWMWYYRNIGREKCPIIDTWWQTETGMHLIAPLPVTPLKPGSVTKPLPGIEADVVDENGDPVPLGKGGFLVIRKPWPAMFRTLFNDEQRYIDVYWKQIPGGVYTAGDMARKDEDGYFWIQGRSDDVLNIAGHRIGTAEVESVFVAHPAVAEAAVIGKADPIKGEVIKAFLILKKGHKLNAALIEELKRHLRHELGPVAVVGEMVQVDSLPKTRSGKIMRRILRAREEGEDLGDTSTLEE

[2] = molecular target: Acs1Mt Ala500Thr variant (Methanothermobacter thermautotrophicus); assay: SEC; Superose 12 gel filtration column, 50 mM Tris pH 7.5 with 150 mM KCl, calibrated with mass standards; subunit composition (dimer)
[3] = molecular target: Acs1Mt Asp502Ala variant (Methanothermobacter thermautotrophicus); assay: as above
[4] = molecular target: Acs1Mt Asp502Asn variant (Methanothermobacter thermautotrophicus); assay: as above
[5] = molecular target: Acs1Mt Asp502Glu variant (Methanothermobacter thermautotrophicus); assay: as above
[6] = molecular target: Acs1Mt Gly501Ala variant (Methanothermobacter thermautotrophicus); assay: as above
[7] = molecular target: Acs1Mt Thr499Ala variant (Methanothermobacter thermautotrophicus); assay: as above
[8] = molecular target: Acs1Mt Tyr498Ala variant (Methanothermobacter thermautotrophicus); assay: as above
[9] = molecular target: Acs1Mt Tyr498Phe variant (Methanothermobacter thermautotrophicus); assay: as above
[10] = molecular target: Methanothermobacter thermautotrophicus Acs1 (AMP-forming acetyl-CoA synthetase), unaltered (Methanothermobacter thermautotrophicus); assay: as above
[11] = substrate: CC(C)(COP(=O)(O)OP(=O)(O)OC[C@H]1O[C@@H](n2cnc3c(N)ncnc32)[C@H](O)[C@@H]1OP(=O)(O)O)[C@@H](O)C(=O)NCCC(=O)NCCS; assay: Michaelis-Menten kinetics of purified recombinant enzyme, hydroxamate assay (Km); type: biochemical, Methanothermobacter thermautotrophicus; conditions: Mg2+
[12] = substrate: Nc1ncnc2c1ncn2[C@@H]1O[C@H](COP(=O)(O)OP(=O)(O)OP(=O)(O)O)[C@@H](O)[C@H]1O; assay: as above; type: biochemical, Methanothermobacter thermautotrophicus; conditions: Mg2+ active site; Asp502 interacts with the OH groups of the ribose moiety (model)
purified protein = substrate: CC(=O)O; assay: purified protein; conditions: Mg2+

O=C[C@H](O)[C@H](O)[C@H](O)CO [ribose]
Ki [1]: 53 mM

OC1OC[C@@H](O)[C@@H](O)[C@H]1O (some centres unmarked) [ribose]
Ki (Acs1Mt): 53 mM

Acs1Mt Ala500Thr variant (enzyme)
stoichiometry N [2]: 2

Acs1Mt Asp502Ala variant (enzyme)
stoichiometry N [3]: 2

Acs1Mt Asp502Asn variant (enzyme)
stoichiometry N [4]: 2

Acs1Mt Asp502Glu variant (enzyme)
stoichiometry N [5]: 2

Acs1Mt Gly501Ala variant (enzyme)
stoichiometry N [6]: 2

Acs1Mt Thr499Ala variant (enzyme)
stoichiometry N [7]: 2

Acs1Mt Tyr498Ala variant (enzyme)
stoichiometry N [8]: 2

Acs1Mt Tyr498Phe variant (enzyme)
stoichiometry N [9]: 2

Methanothermobacter thermautotrophicus Acs1 (AMP-forming acetyl-CoA synthetase), unaltered (enzyme)
stoichiometry N [10]: 2

B1: acetyl-CoA synthetase (Acs1Mt) (Methanothermobacter thermautotrophicus str. Delta H) (protein)
chain: T1 sequence (O26319 1-558)
Km [11]: 0.19 ± 0.003 mM
Km [12]: 3.3 ± 0.2 mM
Km (purified protein): 3.5 ± 0.1 mM

Source: publication PMC3438747, “Role of Motif III in Catalysis by Acetyl-CoA Synthetase” (Archaea, 2012)
